Measurements as given in patent publication US20050002900A1, “Method of treating estrogen responsive breast cancer” (priority 2001, published 2005).

Key:
aromatase mRNA = assay: RT-PCR of aromatase mRNA in cultured adipocytes; assay type: cell-based, human; settings: for expression of aromatase mRNA in human adipocytes: interferon alone, endogenous expression, FIG. 3; for transcription of aromatase mRNA: cytokine alone compared to untreated control
Description: (§1) Human subcutaneous cultured adipocytes and preadipocytes, catalog nos. SP-1012, SP-1024, SP-1096, SP-75, or SP-25 were purchased from Zen-Bio, Inc. (Research Triangle Park, N.C.) and cultured according to the manufacturer's instructions.
Adipocyte cultures were treated with IL-1-β, IFN-γ, TNF-α, and combinations of IL-1-β and IFN-γ and TNF-α and IFN-γ. Consequently, total RNA from cultured adipocytes was isolated using conventional methods. The reverse transcriptase polymerase chain reaction (RT-PCR) was performed using aromatase specific primers. The amplified aromatase cDNA fragments produced by RT-PCR were separated on an agarose gel. […] The estradiol production by the cells is shown as pikograms/ml (pg/ml) below the photograph of the gel showing the aromatase mRNA levels.
(§2) The isolated human adipocytes were also treated with different interferon family members: IFN-α, -β, and -γ.

human adipocytes = assay: Estradiol production by cultured human adipocytes (Active Estradiol EIA kit); assay type: cell-based; settings: for estradiol amount: cytokine alone at increasing concentrations
Description: as §1
The culture medium of the preadipocytes was supplemented with 0.1 μg/ml IFN-γ and increasing concentrations of either TNF-α or TNF-β as shown in FIG. 1. Estradiol concentrations were measured using the Active™ Estradiol EIA kit according to the manufacturer's instructions (catalog no. DSL-10-4300, Diagnostic Systems Laboratories, Inc., Webster, Tex.).
as §2

Question: IFN-α was tested. Which “expression of aromatase mRNA in human adipocytes” value (aromatase mRNA) did it give?
Answer: The value was “significantly increased”.

Question: What about the “estradiol production increase upon interferon induction” value (human adipocytes; interferon alone, FIG. 3) of the same molecule?
Answer: Its value is “about 6 fold”.

Question: With IL-1β: interleukin-1β as the molecule, how does the “transcription of aromatase mRNA” value (aromatase mRNA; FIG. 2) read?
Answer: Its value is “induced”.

Question: With TNF-α as the molecule, how does the “transcription of aromatase mRNA” value (aromatase mRNA; FIG. 2) read?
Answer: Its value is “induced”.

Question: What about the estradiol amount (human adipocytes; FIG. 1) of the same molecule?
Answer: Its estradiol amount is “significantly increased”.

B1: TBP: soluble TNF binding protein, TNF-R1, as described in U.S. Pat. No. 6,225,300 (protein, UniProt P19438 30-211, looked up)
extracellular domain: LVPHLGDREKRDSVCPQGKYIHPQNNSICCTKCHKGTYLYNDCPGPGQDTDCRECESGSFTASENHLRHCLSCSKCRKEMGQVEISSCTVDRDTVCGCRKNQYRHYWSENLFQCFNCSLCLNGTVHLSCQEKQNTVCTCHAGFFLRENECVSCSNCKKSLECTKLCLPQIENVKGTEDSGTT
modifications: extracellular domain
Question: How did the “TNF-α induced estradiol production” value (human adipocytes; TNF-α at varying concentrations plus TBP, FIG. 4) turn out when B1 was run?
Answer: The value was “completely blocked”.

Question: And the “TNF-β induced estradiol production” value (human adipocytes; TNF-β at varying concentrations plus TBP, FIG. 4)?
Answer: Its value is “completely blocked”.

B2: IFN-γ: interferon gamma, added at 0.1 μg/ml to adipocyte culture medium (protein, UniProt P01579 24-161, looked up)
Interferon gamma: QDPYVKEAENLKKYFNAGHSDVADNGTLFLGILKNWKEESDRKIMQSQIVSFYFKLFKNFKDDQSIQKSVETIKEDMNVKFFNSNKKKRDDFEKLTNYSVTDLNVQRKAIHELIQVMAELSPAAKTGKRKRSQMLFRG
Question: B2 was tested. Which “transcription of aromatase mRNA induced by IL-1β” value (aromatase mRNA; given together with IL-1β, FIG. 2) did it give?
Answer: The value was “inhibits”.

Question: And the “transcription of aromatase mRNA induced by TNFα” value (aromatase mRNA; given together with TNFα, FIG. 2)?
Answer: Its value is “inhibits”.

Question: And the “expression of aromatase mRNA in human adipocytes” value (aromatase mRNA)?
Answer: The value was “inhibits”.

Question: What about the “TNF-α induced estradiol production” value (human adipocytes; 0.1 μg/ml IFN-γ, increasing concentrations of TNF-α, FIG. 1) of the same molecule?
Answer: Its value is “inhibits”.

Question: And the “TNF-β induced estradiol production” value (human adipocytes; 0.1 μg/ml IFN-γ, increasing concentrations of TNF-β, FIG. 1)?
Answer: Its value is “inhibits”.

Question: What about the estradiol production (human adipocytes; IFN-γ alone, FIG. 3) of the same molecule?
Answer: The estradiol production was “blocked completely”.

B3: TNF-β: tumor necrosis factor beta (protein, UniProt P01374 35-205, looked up)
Lymphotoxin-alpha: LPGVGLTPSAAQTARQHPKMHLAHSTLKPAAHLIGDPSKQNSLLWRANTDRAFLQDGFSLSNNSLLVPTSGIYFVYSQVVFSGKAYSPKATSSPLYLAHEVQLFSSQYPFHVPLLSSQKMVYPGLQEPWLHSMYHGAAFQLTQGDQLSTHTDGIPHLVLSPSTVFFGAFAL
Question: Which estradiol amount (human adipocytes; FIG. 1) does the source give for B3 here?
Answer: Its estradiol amount is “significantly increased”.
